PMC4424398, “A Human Platelet Receptor Protein Microarray Identifies the High Affinity Immunoglobulin E Receptor Subunit α (FcεR1α) as an Activating Platelet Endothelium Aggregation Receptor 1 (PEAR1) Ligand* ^([image sbox.jpg])” (Molecular & Cellular Proteomics : MCP, 2015)

What was measured:
[1] = molecular target: T1, PEAR1 ectodomain, monomeric biotinylated bait (human, UniProt Q5VY43 21-755, biotin (on the biotinylatable peptide tag)); test: SPR; Biacore T100; PEAR1 immobilised; gel-filtered monomeric FcεR1α-Cd4-His6 serially diluted and injected at 10 μl/min until equilibrium; reference-subtracted; equilibrium analysis; conditions: both partners purified
T1 construct: human platelet endothelium aggregation receptor 1 (PEAR1), whole ectodomain; also called PEAR1 bait; immobilized PEAR1; source: HEK293E, transient transfection, purified (Ni2+-NTA via His6)
T1 sequence (looked up): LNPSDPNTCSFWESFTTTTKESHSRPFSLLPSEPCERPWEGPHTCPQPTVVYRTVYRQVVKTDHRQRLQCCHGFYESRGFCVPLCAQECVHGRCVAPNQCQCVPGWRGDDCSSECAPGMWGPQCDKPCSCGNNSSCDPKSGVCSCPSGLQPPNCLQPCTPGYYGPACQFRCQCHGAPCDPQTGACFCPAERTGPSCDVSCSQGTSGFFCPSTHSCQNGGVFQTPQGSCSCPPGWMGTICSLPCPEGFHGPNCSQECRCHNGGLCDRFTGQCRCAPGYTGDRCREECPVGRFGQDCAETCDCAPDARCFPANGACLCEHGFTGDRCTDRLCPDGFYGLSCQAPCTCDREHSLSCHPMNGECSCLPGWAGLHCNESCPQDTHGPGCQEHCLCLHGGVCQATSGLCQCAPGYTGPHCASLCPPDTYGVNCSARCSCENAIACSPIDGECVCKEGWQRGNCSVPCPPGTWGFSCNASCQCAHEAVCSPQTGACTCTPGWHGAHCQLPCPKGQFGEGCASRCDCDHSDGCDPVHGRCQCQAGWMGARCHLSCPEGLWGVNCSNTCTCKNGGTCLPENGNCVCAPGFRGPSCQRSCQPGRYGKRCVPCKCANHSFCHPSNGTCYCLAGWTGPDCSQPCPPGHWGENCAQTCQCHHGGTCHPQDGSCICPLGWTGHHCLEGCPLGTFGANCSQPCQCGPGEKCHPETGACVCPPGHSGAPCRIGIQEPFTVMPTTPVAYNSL

[2] = molecular target: T2, PEAR1 ectodomain, monomeric biotinylated bait (human, UniProt Q5VY43 21-755, biotin (on the biotinylatable peptide tag)); test: SPR; kinetic analysis
T2 chain: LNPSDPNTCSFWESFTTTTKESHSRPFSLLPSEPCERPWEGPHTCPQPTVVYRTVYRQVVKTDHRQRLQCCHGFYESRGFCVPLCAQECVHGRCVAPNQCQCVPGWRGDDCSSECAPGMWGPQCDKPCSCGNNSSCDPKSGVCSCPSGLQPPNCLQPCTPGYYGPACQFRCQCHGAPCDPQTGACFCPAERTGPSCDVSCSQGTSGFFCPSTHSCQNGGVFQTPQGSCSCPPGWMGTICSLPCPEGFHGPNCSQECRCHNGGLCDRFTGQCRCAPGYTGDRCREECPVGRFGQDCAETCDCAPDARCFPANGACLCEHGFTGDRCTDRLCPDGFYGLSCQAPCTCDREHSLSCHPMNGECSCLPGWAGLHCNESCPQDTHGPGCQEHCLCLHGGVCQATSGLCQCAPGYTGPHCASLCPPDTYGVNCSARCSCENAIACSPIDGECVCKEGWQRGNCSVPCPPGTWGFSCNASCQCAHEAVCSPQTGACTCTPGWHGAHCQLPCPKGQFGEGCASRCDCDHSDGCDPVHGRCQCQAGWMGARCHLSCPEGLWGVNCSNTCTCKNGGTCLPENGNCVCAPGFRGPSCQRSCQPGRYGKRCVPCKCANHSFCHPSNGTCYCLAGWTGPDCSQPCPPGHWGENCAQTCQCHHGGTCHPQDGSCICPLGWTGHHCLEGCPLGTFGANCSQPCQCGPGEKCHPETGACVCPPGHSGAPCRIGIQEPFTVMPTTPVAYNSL

[3] = molecular target: T1, PEAR1 ectodomain, monomeric …; test: SPR; Biacore T100; PEAR1 immobilised; seven serial dilutions of FcεR1α-Cd4-His6 injected at 100 μl/min; kinetic analysis, 1:1 binding model; conditions: both partners purified

B1: FcεR1α-Cd4-His6, purified monomeric soluble protein (receptor, human, UniProt P12319 26-205, looked up)
chain: VPQKPKVSLNPPWNRIFKGENVTLTCNGNNFFEVSSTKWFHNGSLSEETNSSLNIVNAKFEDSGEYKCQHQQVNESEPVYLEVFSDWLLLQASAEVVMEGQPLFLRCHGWRNWDVYKVIYYKDGEALKYWYENHNISITNATVEDSGTYYCTGKVWQLDYESEPLNITVIKAPREKYWLQ
notes: also called soluble FcεR1α-Cd4-His6; source: HEK293E, transient transfection, purified (His6), resolved by gel filtration just prior to use
[1]
  Kd: 27.4 ± 1.3 nM
[2]
  koff: 0.0788 s⁻¹
[3]
  stoichiometry N: 1
